These results are taken from patent US20190151365A1 (Novartis, published 2019).

The target in assay [1] is T1, human PD-1 (human, UniProt Q15116 25-167, limits assumed).
T1 construct: also called Programmed Death 1
The experiment in a line: Biacore (SPR). An excerpt:
PDR-001 was characterized in vitro for its affinity and activity on human PD-1. PDR-001 was expressed in a CHO cell line. PDR-001 bound with high affinity to human PD-1. […] In lymphocyte stimulation assays using human blood ex vivo, PDR-001 enhanced interleukin-2 (IL-2) production by approximately 2 fold in response to super antigen stimulation with Staphylococcus enterotoxin B (SEB).

The target in assay [2] is T1, human PD-1. The experiment in a line: cell-based or functional assay.
The next assay deals with T2, cynomolgus monkey PD-1 (cynomolgus monkey, UniProt B0LAJ3 25-170).
T2 construct: also called cynomolgus PD-1
The experiment in a line: method not stated for this value (human value by Biacore).

As a reminder, the Kd is the concentration at which binding is half-saturated.

T1 sequence (Q15116 25-167 limits assumed): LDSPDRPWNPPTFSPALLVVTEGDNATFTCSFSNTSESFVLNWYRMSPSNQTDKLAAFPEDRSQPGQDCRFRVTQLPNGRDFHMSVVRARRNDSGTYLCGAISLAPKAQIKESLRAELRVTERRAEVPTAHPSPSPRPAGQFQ
T2 sequence (B0LAJ3 entry or part of it limits assumed, form in doubt): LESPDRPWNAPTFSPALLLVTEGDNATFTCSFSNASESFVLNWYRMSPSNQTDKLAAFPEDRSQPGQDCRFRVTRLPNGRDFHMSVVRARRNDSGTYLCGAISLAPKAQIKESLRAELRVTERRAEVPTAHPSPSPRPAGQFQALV

B1: PDR-001 (antibody, IgG4, V domains shown)
VH: EVQLVQSGAEVKKPGESLRISCKGSGYTFTTYWMHWVRQATGQGLEWMGNIYPGTGGSNFDEKFKNRVTITADKSTSTAYMELSSLRSEDTAVYYCTRWTTGTGAYWGQGTTVTVSS
VL: EIVLTQSPATLSLSPGERATLSCKSSQSLLDSGNQKNFLTWYQQKPGQAPRLLIYWASTRESGVPSRFSGSGSGTDFTFTISSLEAEDAATYYCQNDYSYPYTFGQGTKVEIK
notes: also called BAP049-Clone-E (variable regions)
Consider B1, for which the Kd came to 0.83 nM with human PD-1 [1] and 0.93 nM with cynomolgus monkey PD-1. For the same molecule, the “interleukin-2 (IL-2) production in lymphocyte stimulation assays using human blood ex vivo, super antigen stimulation with Staphylococcus enterotoxin B (SEB)” value with human PD-1 [2] was approximately 2 fold.
